The target of the experiment is T1, RAD23A^UBL (human, UniProt P54725 1-84).
T1 construct: RAD23A, human, N-terminal ubiquitin-like domain, residues 1-84; The limits 1-84 are stated for the crystallised construct; also called UBL domain of RAD23A; RAD23A (1–84); source: E. coli (Rosetta2(DE3) for crystallisation), purified via GST tag and SEC
T1 sequence (looked up): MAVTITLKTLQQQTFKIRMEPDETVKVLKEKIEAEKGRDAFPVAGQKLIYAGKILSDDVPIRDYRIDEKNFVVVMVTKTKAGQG
Kind of experiment: ITC; MicroCal PEAQ-ITC, 25 °C, 50 mM Tris-HCl pH 7.5, 150 mM NaCl, 250 µM TCEP; DUB in the syringe titrated into K48-linked polyUb in the cell, in other experiments the scarcest species in the cell; n = 2, mean ± SD. The conditions noted are these: both partners purified. For orientation: In ITC the heat of successive injections is recorded.

This is an account of results in paper PMC13354579 (EMBO Reports, 2026).

For orientation: Kd means the equilibrium constant for the complex coming apart. Low readings indicate higher affinity, high ones lower affinity.

B1: MINDY3^EF-hand (domain or fragment, human, UniProt Q9H8M7 297-370, looked up)
chain: ALVAPEAPSEQARRVFQTYDPEDNGFIPDSLLEDVMKALDLVSDPEYINLMKNKLDPEGLGIILLGPFLQEFFP
notes: MINDY3, human, EF-hand domain, residues 297-370; The limits 297-370 are stated for the crystallised construct; also called EF-hand domain of MINDY3; MINDY3 (297–370); source: E. coli (Rosetta2(DE3) for crystallisation), purified via GST tag and SEC
In turn, B1 registered a Kd of 3.5 µM.
